# Reference: the supplement of paper PMC10065799, “High-throughput profiling of sequence recognition by tyrosine kinases and SH2 domains using bacterial peptide display” (eLife, 2023)
# Experiments:
# AncSZ = experiment: phosphorylation enrichment, bacterial display (enrichment ratio); higher = better substrate or ligand; peptides without Tyr show the background
# Jak2 = Jak2 (UniProt O60674); experiment: as above
# c-Abl (mouse) = experiment: as above
# MERTK = MERTK (UniProt Q12866); experiment: as above
# Hck = Hck (UniProt P08631); experiment: as above
# EPHB1 = EPHB1 (UniProt P54762); experiment: as above
# FGFR3 = FGFR3 (UniProt P22607); experiment: as above
# FGFR3, sequence (P22607 whole entry, looked up): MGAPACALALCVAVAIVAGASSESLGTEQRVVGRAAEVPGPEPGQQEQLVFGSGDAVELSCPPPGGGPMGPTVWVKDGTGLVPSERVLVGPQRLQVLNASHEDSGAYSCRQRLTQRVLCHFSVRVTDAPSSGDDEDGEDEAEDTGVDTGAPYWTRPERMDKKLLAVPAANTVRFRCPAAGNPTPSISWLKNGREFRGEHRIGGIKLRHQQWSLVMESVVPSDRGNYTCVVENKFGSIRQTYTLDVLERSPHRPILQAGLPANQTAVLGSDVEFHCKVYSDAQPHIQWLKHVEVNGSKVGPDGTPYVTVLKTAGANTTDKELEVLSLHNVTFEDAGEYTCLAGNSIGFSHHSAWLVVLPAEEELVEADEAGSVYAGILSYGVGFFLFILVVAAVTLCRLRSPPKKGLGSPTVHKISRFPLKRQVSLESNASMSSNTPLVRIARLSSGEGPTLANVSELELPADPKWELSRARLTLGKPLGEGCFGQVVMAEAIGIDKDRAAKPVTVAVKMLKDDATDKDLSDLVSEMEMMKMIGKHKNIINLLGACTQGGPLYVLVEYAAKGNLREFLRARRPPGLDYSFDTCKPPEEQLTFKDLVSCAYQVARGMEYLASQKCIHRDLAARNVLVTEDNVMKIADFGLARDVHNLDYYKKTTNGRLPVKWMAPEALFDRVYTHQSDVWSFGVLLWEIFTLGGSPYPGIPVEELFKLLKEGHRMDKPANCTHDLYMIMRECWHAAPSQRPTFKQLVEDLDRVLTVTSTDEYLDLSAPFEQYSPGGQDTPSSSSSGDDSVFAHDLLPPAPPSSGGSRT
# Fyn = Fyn (UniProt P06241); experiment: as above
# EPHB2 = EPHB2 (UniProt P29323); experiment: as above
# EPHB2, sequence (P29323 whole entry, looked up): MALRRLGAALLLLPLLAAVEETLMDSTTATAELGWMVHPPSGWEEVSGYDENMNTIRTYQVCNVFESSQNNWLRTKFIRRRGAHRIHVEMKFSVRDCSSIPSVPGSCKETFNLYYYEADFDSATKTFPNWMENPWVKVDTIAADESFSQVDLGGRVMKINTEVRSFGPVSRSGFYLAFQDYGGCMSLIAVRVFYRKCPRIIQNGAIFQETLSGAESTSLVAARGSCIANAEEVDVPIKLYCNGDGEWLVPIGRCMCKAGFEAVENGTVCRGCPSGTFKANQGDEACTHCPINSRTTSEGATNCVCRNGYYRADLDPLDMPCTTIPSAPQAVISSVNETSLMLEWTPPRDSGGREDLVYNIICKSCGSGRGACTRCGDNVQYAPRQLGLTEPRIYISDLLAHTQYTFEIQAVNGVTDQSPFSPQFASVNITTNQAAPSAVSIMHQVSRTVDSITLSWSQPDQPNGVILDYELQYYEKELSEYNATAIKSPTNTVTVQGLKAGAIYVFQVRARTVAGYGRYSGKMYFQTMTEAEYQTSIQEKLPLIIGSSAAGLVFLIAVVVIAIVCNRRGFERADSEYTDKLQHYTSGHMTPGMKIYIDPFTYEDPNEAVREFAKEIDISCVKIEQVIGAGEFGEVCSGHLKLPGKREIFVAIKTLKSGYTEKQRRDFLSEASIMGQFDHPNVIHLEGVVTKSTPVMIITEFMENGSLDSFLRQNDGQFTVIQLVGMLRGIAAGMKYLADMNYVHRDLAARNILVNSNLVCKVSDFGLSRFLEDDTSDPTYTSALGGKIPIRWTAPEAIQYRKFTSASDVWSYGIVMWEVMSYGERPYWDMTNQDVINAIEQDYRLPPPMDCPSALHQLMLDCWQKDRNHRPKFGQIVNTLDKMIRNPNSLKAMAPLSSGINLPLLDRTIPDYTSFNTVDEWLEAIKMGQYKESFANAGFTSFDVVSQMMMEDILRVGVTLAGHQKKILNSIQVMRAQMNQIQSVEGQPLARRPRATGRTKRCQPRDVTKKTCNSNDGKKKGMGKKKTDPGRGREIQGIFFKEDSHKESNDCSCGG
# Fes = Fes (UniProt P07332); experiment: as above
# Fes, sequence (P07332 whole entry, looked up): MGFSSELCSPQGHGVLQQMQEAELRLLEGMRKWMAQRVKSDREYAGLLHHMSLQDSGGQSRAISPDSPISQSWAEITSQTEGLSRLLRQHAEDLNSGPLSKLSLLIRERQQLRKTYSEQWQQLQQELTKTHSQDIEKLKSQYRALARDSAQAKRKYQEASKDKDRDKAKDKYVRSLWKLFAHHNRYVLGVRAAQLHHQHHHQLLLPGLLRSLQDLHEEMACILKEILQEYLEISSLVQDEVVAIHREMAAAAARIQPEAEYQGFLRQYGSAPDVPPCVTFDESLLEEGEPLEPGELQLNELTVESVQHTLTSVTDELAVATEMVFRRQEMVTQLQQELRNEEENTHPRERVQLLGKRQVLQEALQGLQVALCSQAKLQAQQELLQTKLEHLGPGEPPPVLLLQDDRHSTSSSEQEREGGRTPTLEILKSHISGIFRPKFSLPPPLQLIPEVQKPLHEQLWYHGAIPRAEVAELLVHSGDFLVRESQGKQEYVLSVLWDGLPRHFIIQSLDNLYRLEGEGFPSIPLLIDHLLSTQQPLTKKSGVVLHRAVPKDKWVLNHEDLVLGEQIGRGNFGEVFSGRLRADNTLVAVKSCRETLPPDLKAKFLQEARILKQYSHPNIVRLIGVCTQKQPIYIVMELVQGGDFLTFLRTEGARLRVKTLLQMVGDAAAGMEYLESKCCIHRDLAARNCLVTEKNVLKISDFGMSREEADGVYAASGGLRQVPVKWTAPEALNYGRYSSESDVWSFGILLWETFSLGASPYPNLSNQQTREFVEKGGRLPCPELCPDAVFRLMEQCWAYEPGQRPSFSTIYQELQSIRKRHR
# c-Src = experiment: as above
# FGFR1 = FGFR1 (UniProt P11362); experiment: as above
# FGFR1, sequence (P11362 whole entry, looked up): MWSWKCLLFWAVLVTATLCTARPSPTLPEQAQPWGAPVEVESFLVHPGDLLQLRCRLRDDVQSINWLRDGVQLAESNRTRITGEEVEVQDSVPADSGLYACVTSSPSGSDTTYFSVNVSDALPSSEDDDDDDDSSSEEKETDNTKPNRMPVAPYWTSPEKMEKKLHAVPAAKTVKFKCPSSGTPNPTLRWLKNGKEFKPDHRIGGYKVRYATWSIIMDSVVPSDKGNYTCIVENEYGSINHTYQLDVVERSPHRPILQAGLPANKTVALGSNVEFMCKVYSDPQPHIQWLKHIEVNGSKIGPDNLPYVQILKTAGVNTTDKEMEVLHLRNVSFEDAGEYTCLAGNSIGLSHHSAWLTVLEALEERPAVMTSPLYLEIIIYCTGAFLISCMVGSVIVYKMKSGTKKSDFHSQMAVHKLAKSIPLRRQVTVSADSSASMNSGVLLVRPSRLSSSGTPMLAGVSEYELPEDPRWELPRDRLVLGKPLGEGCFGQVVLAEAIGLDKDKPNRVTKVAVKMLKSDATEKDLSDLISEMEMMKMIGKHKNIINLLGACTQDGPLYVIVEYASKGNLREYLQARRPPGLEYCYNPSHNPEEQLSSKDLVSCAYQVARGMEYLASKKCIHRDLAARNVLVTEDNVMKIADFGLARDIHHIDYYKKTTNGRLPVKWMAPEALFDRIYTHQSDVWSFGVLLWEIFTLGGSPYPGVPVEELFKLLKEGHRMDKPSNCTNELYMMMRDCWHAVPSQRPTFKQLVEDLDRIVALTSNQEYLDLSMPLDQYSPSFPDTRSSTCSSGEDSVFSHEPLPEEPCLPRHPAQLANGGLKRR
# Fer (mouse) = experiment: as above
# SHP2-C SH2 = experiment: SH2 binding enrichment of the phosphorylated peptide, bacterial display (enrichment ratio); higher = better substrate or ligand; peptides without Tyr show the background
# c-Src SH2 = experiment: as above
# Grb2 SH2 = Grb2 SH2 (UniProt P62993); experiment: as above
# Grb2 SH2, sequence (P62993 whole entry, looked up, the tested form may be a part): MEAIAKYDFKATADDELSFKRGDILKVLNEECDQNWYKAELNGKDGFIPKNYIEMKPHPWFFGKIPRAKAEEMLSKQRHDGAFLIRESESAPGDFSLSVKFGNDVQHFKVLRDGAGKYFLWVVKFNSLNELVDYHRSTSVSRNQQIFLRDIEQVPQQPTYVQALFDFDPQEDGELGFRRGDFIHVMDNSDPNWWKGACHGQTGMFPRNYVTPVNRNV
# 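Throughout, for SH2 binding enrichment of the phosphorylated peptide, bacterial display: peptide library displayed on the E. coli surface as eCPX fusions, selected cells deep-sequenced, score is each peptide's frequency after selection divided by its frequency in the input.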
# 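Throughout, for phosphorylation enrichment, bacterial display: 11-residue human phosphosite peptides and single-mutation variants displayed on the E. coli surface, counted by deep sequencing, each peptide's frequency after selection divided by its frequency in the unselected input library; frequency after pTyr selection over input frequency; kinase dosed for 20-30% of maximal phosphorylation in three min.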
# Jak2, sequence (O60674 whole entry, looked up): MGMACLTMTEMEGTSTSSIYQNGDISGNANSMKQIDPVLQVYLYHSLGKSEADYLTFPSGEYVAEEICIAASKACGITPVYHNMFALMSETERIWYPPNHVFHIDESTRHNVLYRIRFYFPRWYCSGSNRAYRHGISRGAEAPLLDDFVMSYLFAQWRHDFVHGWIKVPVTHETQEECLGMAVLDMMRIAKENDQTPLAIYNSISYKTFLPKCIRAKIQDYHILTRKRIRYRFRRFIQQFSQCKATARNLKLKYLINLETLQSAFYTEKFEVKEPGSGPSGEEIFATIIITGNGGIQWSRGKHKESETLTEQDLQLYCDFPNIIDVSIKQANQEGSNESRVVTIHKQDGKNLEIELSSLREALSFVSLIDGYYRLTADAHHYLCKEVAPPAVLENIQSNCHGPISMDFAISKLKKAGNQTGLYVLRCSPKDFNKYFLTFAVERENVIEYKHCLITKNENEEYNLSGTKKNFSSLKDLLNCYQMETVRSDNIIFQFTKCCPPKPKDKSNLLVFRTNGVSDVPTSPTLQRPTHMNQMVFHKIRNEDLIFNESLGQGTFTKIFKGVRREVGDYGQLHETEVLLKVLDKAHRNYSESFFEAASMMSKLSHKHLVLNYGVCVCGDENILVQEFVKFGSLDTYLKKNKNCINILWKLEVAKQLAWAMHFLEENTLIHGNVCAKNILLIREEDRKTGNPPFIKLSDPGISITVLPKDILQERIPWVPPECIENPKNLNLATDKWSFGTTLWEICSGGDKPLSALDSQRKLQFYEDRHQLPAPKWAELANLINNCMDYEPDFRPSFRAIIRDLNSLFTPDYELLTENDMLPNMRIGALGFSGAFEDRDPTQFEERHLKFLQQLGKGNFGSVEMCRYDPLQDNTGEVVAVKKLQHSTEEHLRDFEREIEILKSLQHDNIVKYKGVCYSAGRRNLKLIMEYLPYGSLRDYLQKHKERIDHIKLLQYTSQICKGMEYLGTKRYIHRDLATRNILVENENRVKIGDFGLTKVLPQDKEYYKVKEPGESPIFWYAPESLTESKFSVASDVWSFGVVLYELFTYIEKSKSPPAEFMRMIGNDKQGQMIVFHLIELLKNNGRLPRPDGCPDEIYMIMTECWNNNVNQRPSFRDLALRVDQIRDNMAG
Sequence,phosphorylation enrichment (AncSZ),phosphorylation enrichment (Jak2),phosphorylation enrichment (c-Abl (mouse)),phosphorylation enrichment (MERTK),phosphorylation enrichment (Hck),phosphorylation enrichment (EPHB1),phosphorylation enrichment (FGFR3),phosphorylation enrichment (Fyn),phosphorylation enrichment (EPHB2),phosphorylation enrichment (Fes),phosphorylation enrichment (c-Src),phosphorylation enrichment (FGFR1),phosphorylation enrichment (Fer (mouse)),SH2 binding enrichment (SHP2-C SH2),SH2 binding enrichment (c-Src SH2),SH2 binding enrichment (Grb2 SH2)
DKANRYFSPNF [PTEN_Y336],0.583,0.488,0.438,0.374,0.402,0.296,0.461,0.323,0.301,0.521,0.362,0.397,0.375,1.16,0.587,1.05
DKEKWYPLGNS [PIK3C2G_Y1438],0.762,0.681,0.488,0.292,0.372,0.43,0.569,0.366,0.441,0.868,0.345,0.384,0.422,1.11,0.44,0.83
DKGTLYIVEQI [PLBD1_Y375],0.985,1.03,0.737,0.355,0.413,0.579,0.703,0.492,0.525,1.09,0.383,0.423,0.463,0.88,0.413,0.711
DKNSSYFADWL [TUBB8_Y340],1.13,1.39,0.746,1.15,0.492,0.573,1.38,0.584,0.53,1.09,0.512,1.51,0.564,0.853,0.766,0.99
DLDPNYVLSSR [CKM_Y125],1.17,0.759,0.528,0.464,0.473,0.523,0.714,0.416,0.636,1.01,0.534,0.465,0.394,0.75,0.528,0.765
DLITAYRAHGF [PDHA1_Y118_H113D],0.543,0.563,0.535,0.355,0.49,0.409,0.54,0.401,0.428,0.756,0.373,0.525,0.387,0.936,0.48,0.81
DLLMQHPKAQG [FAM83C_Y600_Y600H],0.566,0.801,1.46,0.53,0.523,0.515,0.892,0.509,0.332,0.693,0.646,0.5,0.483,0.836,0.466,0.996
DLLNSYTENEG [HSPA4L_Y600_I601T],1.17,1.16,0.623,0.492,0.603,0.482,0.759,0.614,0.618,1.24,0.616,0.578,0.446,0.882,0.457,0.7
DLVLQYLRVPL [F9_Y371_A366D],1.09,3.15,0.617,0.404,0.469,0.489,0.757,0.518,0.525,1.13,0.46,0.528,0.435,1.23,0.776,1.47
DLVSEYQQFQD [TUBB3_Y422_YF],1.52,1.25,0.8,0.511,0.643,0.721,1.01,0.675,0.662,1.33,0.657,0.671,0.58,0.687,0.598,0.918
DNEALYDICFC [TUBB3_Y208_R213C],6.01,1.46,2.07,8.05,5.92,4.22,0.992,7.33,5.33,1.73,6.25,0.748,12.5,0.8,0.714,0.865
DNPAKYFILES [DPP10_Y512],0.833,0.955,0.558,0.542,0.51,0.544,0.715,0.485,0.567,1.04,0.442,0.508,0.419,0.749,0.834,0.832
DSMQSYDLDFP [UNC13B_Y243_YF],1.15,1.03,0.623,0.453,0.461,0.642,0.646,0.48,0.546,1.02,0.569,0.537,0.541,0.686,0.605,0.782
DSMQSYDLDYP [UNC13B_Y243],1.3,1.45,0.496,0.405,0.474,0.4,0.673,0.466,0.552,0.946,0.474,0.665,0.451,0.456,0.733,0.915
DTKPAYQNLRQ [BOD1_Y82],0.462,0.524,0.719,0.313,0.349,0.38,0.452,0.383,0.35,0.541,0.38,0.434,0.385,0.666,0.864,11.8
DVLVEYQEEGR [GNS_Y416_G418E],1.32,1.05,0.642,0.51,0.661,0.634,0.884,0.593,0.617,1.21,0.496,0.59,0.578,0.696,0.505,0.894
EAVSIYQFHGQ [CBLC_Y402],1.01,0.852,0.969,5.19,3.09,2.31,0.594,5.93,1.62,0.926,7.06,0.554,10.4,0.511,0.464,0.757

Sequence,phosphorylation enrichment (AncSZ),phosphorylation enrichment (Jak2),phosphorylation enrichment (c-Abl (mouse)),phosphorylation enrichment (MERTK),phosphorylation enrichment (Hck),phosphorylation enrichment (EPHB1),phosphorylation enrichment (FGFR3),phosphorylation enrichment (Fyn),phosphorylation enrichment (EPHB2),phosphorylation enrichment (Fes),phosphorylation enrichment (c-Src),phosphorylation enrichment (FGFR1),phosphorylation enrichment (Fer (mouse)),SH2 binding enrichment (SHP2-C SH2),SH2 binding enrichment (c-Src SH2),SH2 binding enrichment (Grb2 SH2)
ECKASYPGKIT [PRSS3_Y232],0.53,0.396,0.489,0.402,0.323,0.357,0.418,0.319,0.389,0.596,0.438,0.431,0.396,0.56,0.557,0.823
ECKETYHEGEC [PRKN_Y372_A371T],1.47,1.62,1.03,0.629,0.694,0.608,0.808,0.649,0.728,1.62,0.645,0.721,0.696,0.75,0.889,0.884
ECKFLYSRKEG [PTPN11_Y263_L261F],0.969,0.849,0.639,0.436,0.618,0.576,0.593,0.537,0.594,0.939,0.423,0.495,0.362,0.626,0.6,1.06
EDAHHYLCKEV [JAK2_Y382_A377E],0.799,0.632,0.657,0.411,0.439,0.656,0.778,0.542,0.493,0.857,0.366,0.588,0.441,0.781,0.603,1.08
EDASEYFENYI [PARP4_Y214],1.62,1.15,0.658,0.527,0.597,0.549,0.83,0.613,0.66,1.21,0.539,0.84,0.51,0.675,0.498,0.933
EDSEFYRAFEE [CASQ2_Y179_K180R_YF],1.15,1.02,0.771,0.449,0.513,0.582,0.848,0.538,0.525,1.07,0.494,0.473,0.489,0.682,0.751,0.963
EEAAGCAQESQ [CAMKV_Y491_Y491C],1.15,1.06,1.18,0.625,0.575,0.645,0.833,0.491,0.591,1.23,0.491,0.527,0.657,0.837,0.79,0.974
EEHIPYTHMNG [INSR_Y1361],0.797,0.668,0.555,0.403,0.51,0.54,0.598,0.451,0.517,0.85,0.371,0.497,0.452,0.807,0.722,0.754
EESREYDRLFE [PIK3R1_Y463_K459E_YF],1.46,1.48,1.07,0.546,0.657,0.489,0.762,0.493,0.681,1.49,0.654,0.609,0.599,0.473,6.69,0.829
EFITRYIASLK [PSMA7_Y110_YF],0.84,0.695,0.648,0.475,0.436,0.585,0.536,0.495,0.506,0.806,0.435,0.419,0.454,0.72,0.873,1.32
EFLKNYFTDKA [DSG2_Y775_R773K],0.847,0.808,0.573,0.531,0.556,0.527,0.493,0.581,0.63,0.827,0.632,0.555,0.361,0.882,0.365,0.764
EFQKKYSDADI [CKAP5_Y1860_K1857Q_YF],0.837,0.594,0.745,0.344,0.487,0.399,0.544,0.422,0.383,0.921,0.35,0.442,0.378,0.59,0.459,0.772
EGNEQYEGFCV [GRIA3_Y451_R450Q_YF],1.29,1.01,0.791,0.832,0.721,0.962,0.822,0.726,0.639,1.41,0.788,0.618,2.87,0.964,0.56,0.84
EGTATYAAAIL [JUP_Y644_V648I],0.857,0.795,0.976,0.534,1.21,0.884,0.586,1.25,1.76,0.872,1.25,0.476,1.57,0.429,0.412,0.82
EGWQVYRLGTR [MISP_Y95_A99T],0.846,0.733,0.525,0.325,1.03,0.416,0.645,1.78,0.457,0.75,3.69,0.44,0.45,0.871,0.546,1.03
EILDVYIFLGP [GAA_Y340_G335E],1.4,1.37,0.649,1.15,0.742,0.912,1.79,0.934,0.889,1.27,0.962,2,0.532,0.793,0.46,0.965
